{
  "source": "paper PMC4117426",
  "about": "“SlmA Antagonism of FtsZ Assembly Employs a Two-pronged Mechanism like MinCD”",
  "binders": {"B1": {"name": "biotinylated SBS17-30mer (dsDNA)", "DNA 1": "CAAAAGTAAGTAAATGGTCACTAACGTTGA", "DNA 2": "TCAACGTTAGTGACCATTTACTTACTTTTG"}},
  "conditions_in_all_cases": "protein: recombinant; tags: N-terminal 6xHis; chain copies: 4; blunt",
  "key": {"6xHis-SlmA WT": {"target": "T1, 6xHis-SlmA WT (Escherichia coli, UniProt P0C093 1-198)", "T1 sequence": "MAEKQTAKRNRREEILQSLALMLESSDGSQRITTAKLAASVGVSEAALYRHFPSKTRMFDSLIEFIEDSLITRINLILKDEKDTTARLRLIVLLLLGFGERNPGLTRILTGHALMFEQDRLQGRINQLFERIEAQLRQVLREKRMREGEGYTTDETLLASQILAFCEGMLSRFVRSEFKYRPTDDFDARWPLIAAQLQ", "assay": "BLI; kon 3.24e4 1/(M*s), koff 2.04e-3 1/s, R2 0.98; BLI in 1x Pol buffer: 50 mM HEPES-NaOH pH 8.0, 200 mM KCl, 10 mM MgCl2, room temperature; 50 nM biotinylated SBS17 on streptavidin tips"}, "6xHis-SlmA-R73D": {"target": "T2, 6xHis-SlmA-R73D (Escherichia coli, UniProt P0C093 1-198, R73D)", "T2 sequence": "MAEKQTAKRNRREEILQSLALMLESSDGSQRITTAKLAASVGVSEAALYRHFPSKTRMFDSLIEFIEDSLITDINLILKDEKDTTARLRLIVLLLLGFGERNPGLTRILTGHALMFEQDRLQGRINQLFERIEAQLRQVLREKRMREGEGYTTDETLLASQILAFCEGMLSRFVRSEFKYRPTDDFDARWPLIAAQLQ", "assay": "BLI; 4 uM SlmA; binds like WT; BLI in 1x Pol buffer: 50 mM HEPES-NaOH pH 8.0, 200 mM KCl, 10 mM MgCl2, room temperature; 50 nM biotinylated SBS17 on streptavidin tips"}, "6xHis-SlmA-F65A": {"target": "T3, 6xHis-SlmA-F65A (Escherichia coli, UniProt P0C093 1-198, F65A)", "T3 sequence": "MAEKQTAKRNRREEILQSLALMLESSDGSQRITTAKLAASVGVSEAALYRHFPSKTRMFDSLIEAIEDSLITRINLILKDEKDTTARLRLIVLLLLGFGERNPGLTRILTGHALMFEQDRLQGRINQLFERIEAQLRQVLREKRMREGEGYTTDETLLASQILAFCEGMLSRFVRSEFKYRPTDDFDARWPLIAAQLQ", "assay": "BLI; 4 uM SlmA; binds like WT; BLI in 1x Pol buffer: 50 mM HEPES-NaOH pH 8.0, 200 mM KCl, 10 mM MgCl2, room temperature; 50 nM biotinylated SBS17 on streptavidin tips"}, "6xHis-SlmA-T33A": {"target": "T4, 6xHis-SlmA-T33A (Escherichia coli, UniProt P0C093 1-198, T33A)", "T4 sequence": "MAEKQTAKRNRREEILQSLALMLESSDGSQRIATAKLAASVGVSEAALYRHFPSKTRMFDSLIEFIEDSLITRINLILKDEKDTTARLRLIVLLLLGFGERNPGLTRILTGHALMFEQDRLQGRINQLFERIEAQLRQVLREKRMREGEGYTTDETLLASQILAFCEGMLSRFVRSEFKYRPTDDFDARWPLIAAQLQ", "assay": "BLI; 4 uM SlmA; BLI in 1x Pol buffer: 50 mM HEPES-NaOH pH 8.0, 200 mM KCl, 10 mM MgCl2, room temperature; 50 nM biotinylated SBS17 on streptavidin tips"}},
  "data": [
    {"binder": "B1", "values": [
      {"measurement": "Kd", "setting": "6xHis-SlmA WT", "value": 62.9, "unit": "nM"},
      {"measurement": "binding result", "setting": "6xHis-SlmA-R73D", "value": "binds"},
      {"measurement": "binding result", "setting": "6xHis-SlmA-F65A", "value": "binds"},
      {"measurement": "binding result", "setting": "6xHis-SlmA-T33A", "value": "no binding"}
    ]}
  ]
}
